In experiment [1] the target is PDCoV S ectodomain, prefusion S trimer (porcine deltacoronavirus (PDCoV)). In words: cryo-EM structure; PDCoV S ectodomain (10.5 µM protomer) incubated with 22C10 Fab for about 10 min at room temperature.
In experiment [2] the target is T1, PDCoV S1 (wild type), ELISA antigen (Porcine deltacoronavirus …, UniProt W8Q9Y7).
T1 construct: source: HEK-293T, purified (Protein A Sepharose)
Kind of experiment: ELISA. The settings on record: both partners purified.

In experiment [3] the target is recombinant PDCoV S1 monomer (Porcine deltacoronavirus …, UniProt W8Q9Y7). In words: BLI. The following applies: both partners purified.
Experiment [4] has as its target T2, recombinant PDCoV S1 monomer (porcine deltacoronavirus (PDCoV)).
T2 chain: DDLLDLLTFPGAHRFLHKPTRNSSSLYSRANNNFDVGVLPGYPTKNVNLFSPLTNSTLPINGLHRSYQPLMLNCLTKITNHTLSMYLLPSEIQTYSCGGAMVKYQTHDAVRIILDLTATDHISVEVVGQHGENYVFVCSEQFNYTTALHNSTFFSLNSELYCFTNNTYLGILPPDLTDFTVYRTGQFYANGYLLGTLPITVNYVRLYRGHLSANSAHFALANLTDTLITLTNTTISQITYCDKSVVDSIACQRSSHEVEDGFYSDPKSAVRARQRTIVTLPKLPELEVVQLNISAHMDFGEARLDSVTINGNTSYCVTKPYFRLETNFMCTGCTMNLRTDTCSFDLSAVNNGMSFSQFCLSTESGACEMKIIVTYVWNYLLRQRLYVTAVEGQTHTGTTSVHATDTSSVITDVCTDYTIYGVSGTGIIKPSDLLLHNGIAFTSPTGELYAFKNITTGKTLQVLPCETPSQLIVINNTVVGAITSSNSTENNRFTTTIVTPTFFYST
In words: BLI.

In experiment [5] the target is T3, full length PDCoV S protein expressed on Huh7 cells (porcine deltacoronavirus (PDCoV)).
T3 construct: source: Huh7, transfected (pCAGGS), formaldehyde-fixed cells
T3 chain: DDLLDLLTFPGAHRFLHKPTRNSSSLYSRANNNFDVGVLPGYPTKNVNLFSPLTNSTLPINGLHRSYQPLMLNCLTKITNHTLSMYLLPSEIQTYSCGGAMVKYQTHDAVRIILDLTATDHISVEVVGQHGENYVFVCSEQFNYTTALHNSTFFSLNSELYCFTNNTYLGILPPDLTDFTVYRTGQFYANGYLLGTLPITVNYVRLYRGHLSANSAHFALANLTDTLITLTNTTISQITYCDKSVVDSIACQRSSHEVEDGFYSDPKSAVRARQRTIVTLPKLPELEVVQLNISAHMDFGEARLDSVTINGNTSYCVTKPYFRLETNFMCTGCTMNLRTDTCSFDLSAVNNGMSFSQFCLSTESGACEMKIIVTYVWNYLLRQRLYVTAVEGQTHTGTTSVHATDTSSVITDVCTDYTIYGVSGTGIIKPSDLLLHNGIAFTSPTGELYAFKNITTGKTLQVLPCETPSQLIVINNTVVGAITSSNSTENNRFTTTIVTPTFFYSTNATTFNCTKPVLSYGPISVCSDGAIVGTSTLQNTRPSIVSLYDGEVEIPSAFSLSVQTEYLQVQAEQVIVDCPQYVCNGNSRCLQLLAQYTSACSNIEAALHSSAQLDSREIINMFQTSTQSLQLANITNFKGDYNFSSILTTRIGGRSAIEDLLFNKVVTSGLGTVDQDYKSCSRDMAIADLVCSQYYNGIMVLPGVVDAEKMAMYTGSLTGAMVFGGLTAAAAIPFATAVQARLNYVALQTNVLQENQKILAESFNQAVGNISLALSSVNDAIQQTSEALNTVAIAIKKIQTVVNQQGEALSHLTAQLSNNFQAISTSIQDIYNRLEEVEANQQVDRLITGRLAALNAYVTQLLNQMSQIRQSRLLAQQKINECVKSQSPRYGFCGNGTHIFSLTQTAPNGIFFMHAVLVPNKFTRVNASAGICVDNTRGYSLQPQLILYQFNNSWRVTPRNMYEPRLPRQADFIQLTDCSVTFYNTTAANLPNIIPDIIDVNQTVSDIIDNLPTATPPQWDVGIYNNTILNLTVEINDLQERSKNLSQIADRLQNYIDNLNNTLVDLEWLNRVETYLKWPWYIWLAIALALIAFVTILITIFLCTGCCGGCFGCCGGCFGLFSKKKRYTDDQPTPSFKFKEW
Kind of experiment: immunostaining of cells or tissue. The following applies: one partner purified.

The target in experiment [6] is T4, PDCoV S ectodomain, prefusion S trimer (porcine deltacoronavirus (PDCoV)).
T4 construct: also called prefusion PDCoV S trimer; trimeric S ectodomain; source: HEK-293T, transient (pCAGGS), purified from culture supernatant (streptactin beads); not shown: GCN4 trimerization motif, C-terminal, kept; Strep-tag, C-terminal, kept
T4 chain: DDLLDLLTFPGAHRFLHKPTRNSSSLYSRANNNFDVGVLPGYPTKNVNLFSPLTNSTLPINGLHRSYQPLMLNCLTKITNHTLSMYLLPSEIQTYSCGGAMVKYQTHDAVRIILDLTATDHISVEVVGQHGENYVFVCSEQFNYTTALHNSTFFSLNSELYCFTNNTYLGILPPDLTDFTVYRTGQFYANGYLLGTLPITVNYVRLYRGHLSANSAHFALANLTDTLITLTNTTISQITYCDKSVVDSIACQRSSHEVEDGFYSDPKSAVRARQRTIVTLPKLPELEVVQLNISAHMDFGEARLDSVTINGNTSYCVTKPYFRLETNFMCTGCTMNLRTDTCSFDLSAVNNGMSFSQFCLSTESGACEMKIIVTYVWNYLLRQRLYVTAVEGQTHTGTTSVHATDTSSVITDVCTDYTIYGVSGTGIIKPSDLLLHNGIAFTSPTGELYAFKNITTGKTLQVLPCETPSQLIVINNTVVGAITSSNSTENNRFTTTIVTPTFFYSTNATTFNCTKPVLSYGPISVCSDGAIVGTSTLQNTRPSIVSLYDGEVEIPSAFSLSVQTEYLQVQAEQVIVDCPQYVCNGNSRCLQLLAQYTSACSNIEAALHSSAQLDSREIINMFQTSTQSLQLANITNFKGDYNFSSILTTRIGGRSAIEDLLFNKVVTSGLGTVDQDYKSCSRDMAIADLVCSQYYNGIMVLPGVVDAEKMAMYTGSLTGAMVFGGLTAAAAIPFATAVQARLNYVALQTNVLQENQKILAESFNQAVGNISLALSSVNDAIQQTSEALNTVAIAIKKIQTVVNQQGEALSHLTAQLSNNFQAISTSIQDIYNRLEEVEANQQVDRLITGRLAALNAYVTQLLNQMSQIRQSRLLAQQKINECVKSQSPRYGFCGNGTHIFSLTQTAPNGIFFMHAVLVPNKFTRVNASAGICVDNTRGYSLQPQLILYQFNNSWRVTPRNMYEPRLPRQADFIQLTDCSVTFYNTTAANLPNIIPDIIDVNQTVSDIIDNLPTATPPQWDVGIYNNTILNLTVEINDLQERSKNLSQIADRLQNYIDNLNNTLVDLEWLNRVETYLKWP
Kind of experiment: BLI; monomeric S1B or untreated trimeric S immobilised on anti-strep mAb-coated protein A biosensor; mAb (50 µg/ml) or APN (100 µg/ml) for 30 min. The following applies: both partners purified. On the technique in general: BLI is a label-free optical method that tracks binding on a fibre tip over time.

For experiment [7], the target named is T5, PDCoV S1A domain (Porcine deltacoronavirus …, UniProt W8Q9Y7).
T5 construct: also called N-terminal domain; NTD; source: HEK-293T, transient (pCAGGS), purified from culture supernatant (streptactin beads); not shown: triple Strep-tag, C-terminal, kept
Kind of experiment: ELISA; purified Strep-tagged S antigens (S trimer, S1B, S1A; 1 µg/ml) coated on Maxisorp plates; human mAbs in fivefold dilutions from 10 µg/ml, RT 1 h; detection with HRP anti-human IgG. The following applies: both partners purified. Background: ELISA stands for enzyme-linked immunosorbent assay.

Changes are numbered by the printed parent chain. Numbers in names are those of the source.

For “PDCoV S ectodomain, prefusion S trimer (domain or fragment)”, in experiment [1], the stoichiometry N was found to be 3.

B1: 22C10 human IgG1 monoclonal antibody (antibody, V domains shown)
VH: EVRLLESGGGLVQPGGSLRLSCAASGFTFSSYAMSWVRQAPGKGLEWVSIITDSGGGTYFADSVKGRFTISRDNSKNTLYLQMNSLRAEDTALYYCVKVGFCYSSTCPFDYWGQGTLVTVSS
VL: ELVMTQSPATLSVSPGERATLSCRASQSVSSDLAWYQQRPGRAPRLLIYDASTRTTGIPARFSGSGSGTEFTLTISSLQSEDFAVYYCHQYNNWLTFGQGTRLEIK
notes: IgG1, kappa; also called mAb 22C10; source: HEK-293T, transient, purified (Protein A Sepharose)
With B1, the binding result in experiment [2], in experiment [3], in experiment [5], in experiment [6] and in experiment [7] was “binds” throughout. The Kd in experiment [4] is 46.6 nM.

B2: 42H3 human IgG1 monoclonal antibody (antibody, V domains shown)
VH: QVQLVESGGGVVQPGRSLRLSCAASGFTFSSYDMHWVRQAPGKGLEWVAVIWNDGSNEYYADSVKGRFIISRDNSKNTLYLQMNSLRAEDTAVYYCARRGIIMVRGLLGYWGQGTLVTVSS
VL: DIQMTQSPPSLSASVGDRVTITCRASQGISNYLAWHQQKPGKVPKLLIYTASTLQSGVPSRFSGSGSGTDFTLTISSLQPEDVATYYCQKYNSAPFTFGPGTKVDIK
notes: also called S1B neutralizer
For the molecule B2, in experiment [3], the binding result is listed as “binds”. The Kd in experiment [4] was 42 nM.

B3: 46E6 human IgG1 monoclonal antibody (antibody, V domains shown)
VH: B2 VH with D33A, N53R, Y59F, I69T, N77D
VL: B2 VL
notes: IgG1, kappa; also called S1B neutralizer
Regarding B3, the binding result in experiment [3] was “binds”. In addition, the Kd in experiment [4] turned out to be 19.9 nM.

Broadly, the stoichiometry N is the number of molecules, sites or subunits per partner or assembly. Broadly, the Kd is the concentration at which binding is half-saturated.

The values are drawn from publication PMC11193727, “Neutralizing antibodies reveal cryptic vulnerabilities and interdomain crosstalk in the porcine deltacoronavirus spike protein” (Nature Communications, 2024).
